Experimental data reported in the RNAGym collection of RNA variant scans (doi:10.1073/pnas.2313332121).

B1: TPR t1 (parent)
chain: GACCAAUCUGCCCUCAGAGCUCGAGAACAUCUUCGGAUGCAGAGGAGGCAGGCUUCGGUGGCGCGAUAGCGCCAACGUCCUCAACCUCCAAUGCAUCCCACCACAUGAUGAUGCCUGAAGAGCCUUGGUUUUUUG

Variants of: B1
Assay: polymerase ribozyme fitness, log enrichment relative to wild type (log ratio); higher = more active; in vitro selection for triplet polymerase activity
Method in brief: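 Fitness is a logarithmic measure of how a genotype enriched relative to the wild type, with replicate averages weighted by inverse variance. The logarithm uses base 2, and enrichment came from Illumina sequencing of input and output libraries. Those libraries were PCR-built, transcribed mutants of each subunit of a heterodimeric triplet polymerase ribozyme, passed through one triplicate in vitro selection round that included frozen incubation at −7 °C, gel excision of extended constructs and streptavidin-bead capture. Genotypes were kept only if they had ≥10 input reads and ≥1 read per output.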

Variant | polymerase ribozyme fitness (log ratio)
C31A G57A C73U | -6.14
G17A C53A C104U U133A | -2.46
C53G C82A C94U U130G | -0.77
C98A U112G | -5.66
G93C U106A | -0.61
C31U G69U C98U A119G | -3.7
A50U U54C C73A A95C | -1.37
A26U C70U U78C | -4.92
G48A A50U U78A A119G G120C | 0.486
U38C G48U A68G G122A C123U | -3.71
G51C U129C | -3.96
U14G G60U G61A | -3.09
G69A C124A | -0.616
G120C G128C | -2.04
A46G C101A | -0.288
G52U U109C A118U | -6.47
A16U C73U A121C | 0.586
C8A C115A U125G | 1.5
U7C U59A A83G U96C | -1.25
C13U G120C | 1.89
G17A C80A | -5.66
C62G U106C | -2.05
G42C C56G C72A G77C A100U U132A | -3.99
G48A C94G | -1.71

Variant | polymerase ribozyme fitness (log ratio)
C72A A108U | -5.64
C20A G71U | -2.48
G42C G63A C88U | -3.63
A24G C70G C97A A121G | -5.13
C53U C70A | -1.49
G60A A108G G117A | -3.74
C11G G48U C72A | -0.215
C70A C79A A91C G120U | -7.09
C15U C76U A100U G120C | 0.0455
C8G C85U | -0.269
U87G U109A | -3.08
C72U U92C | -0.581
C28U C34U C73G C102U G110A | -0.0797
G77C G117U | -2.55
A5U C13G C72A C73U U106C | -3.49
A66G C72A C79A A84U | -4.61
C4U C97A | -5.21
C80A G113A G135A | -3.66
C22G G58C | -2.94
A46C G120A | -0.00915
U21G G36A | -2.46
C40U G122A U130A | -1.96
A6U G44A A50U C94G | -4.1
C82A C89G C101A C102A U112C C123A | -6.34

Variant | polymerase ribozyme fitness (log ratio)
G36A C97U | -0.157
C34U C56U | -4.1
G110U A121C | -2.17
C20A C53U C72G U126G | -3.99
C31U G120C | -2.93
G10A G52A G60A C79A | -1.36
U92A A118U | -1.95
G47U G128U | -2.73
C73A A100C A119U | -1.6
A50C C79G U125A | -1.78
A27G U112A | 1.03
G25U C53A G69U G107A U116G C123U | -7.07
A43U U55A G127A | -3.12
G44C A91G | -1.82
G42U G69A | -5.35
G45C C82A C101U | -2.68
G19U C53G | -2.76
U7G C8A G44A C123A | 1.17
C88G G117C | -4.47
A50C C104U G110A A118U | -0.437
U78G C89A | -3.29
C15U G42U G120U G127C | -2.69
C49U C56U U109G | -5.37
A66U C123A | 0.285

Variant | polymerase ribozyme fitness (log ratio)
A6U C40A C56G A84G C104U | -2.66
C20G A26G C64A C70U U78C U112A | -5.93
G69U U130A | -0.136
C70U A83U | -0.296
A18C A66U | -5.53
C12A C64A | -5.04
G47U A66C A95C | -4.27
C40A C82U | -1.77
C40A G42U G77C | -2.77
A18U A46U C97U A103U G120U C123G | -6.88
C20A G45C | -3.43
C62A C101A G113A | -2.77
A37C C62G G120U U125G U130C | -3.18
G10A G61U A100C G135U | -1.17
C20A G60A | -2.83
U55A G57A G61A G77A U87A A100C | -1.72
A2G G63C U116A | -4.03
C53G C72A U112G G113C | -7.66
G42U C72U U125A | -1.92
G36A C73G C101A U106C | -3.26
G36U U55G C89G G113U | -4.27
U9G C34G | -4.16
A84U C86A U125G | -1.97
G52U U81A | -2.79

Variant | polymerase ribozyme fitness (log ratio)
C56A U129G | -2.29
G35A A74C C101U | -4.16
C13A A26U A46U U81G C114U | -6.71
G60A C82A U106A G120A | 0.0586
C72U C101U | -0.522
G48A C72U C94U G127A | -2.68
C12U C13A G60C A121U | 1
C12G U55C C88A C104G G113A C123G C124A | -6.5
U9A C12U C15A C53G U54C U106G | -3.06
C8U G77C | -0.262
C13U G71A | -0.0397
A6G G48A G69A U129G | -5.25
C4U G39U G71U G117A U133A | -3.6
A43U C123A G128C | -2.79
C98A A100G C114A | -6.06
U7G A16C G42A | -4.17
C13U A100U C101U C104U A121C | 1.33
C20A C89A | -3.94
U14G A37U C70U A74U U133G | -3.41
G44U C82U C89A C124A | 1.91
C12G C56A C70G | -3.89
C20A U32A C70U G93C | -6.8
G19A C53A C101U | -2.73
C53G C114U | -2.03

Variant | polymerase ribozyme fitness (log ratio)
C70A C80G C82G | -7.42
G52A U55A G61A C97U C101G U125G | -2.53
U33G G52C C64G U78A C98A U112G U116G | -7.08
U21A C40G U125A | -1.07
G39A G93A | -2.02
G10C G69A | -4.78
C56U C97U A108G U116C U133G | -3.98
C12A U32C U96A G122C C123G U131A | -0.725
A16U C56G C115A | -4.04
A27U C31G G69U C79G G120C U130G U132A | -6.29
G42U G57U C85A | -2.51
G45A G60A G110C | -4.86
C73U A100U | -0.959
C80U G120U | -0.245
G113A G122A | -2.77
A41U C62G | -3.92
U7A C56U G120U | 0.935
G35U G63A U67G C88A C124A G127C U132A | -7.2
C70A C123A | -0.557
A24U C124U | -5.45
C15U A41G G57C C62U U112A G122A G135A | -1.87
A6U C70A A91G | -2.94
C8U C53A C73G | -0.563
G25U G47U | -6.74

Variant | polymerase ribozyme fitness (log ratio)
G45U C72U C88U G113U U129A | -5.57
U55C U130G | -1.43
C15A A41C C104U | -2.15
C53G U116C | -1.68
U9G G42A A105U | -4.37
C8U G127C | -1.53
U9G C34A G120C | -0.929
A24U G39A | -7.92
G48U C114G G117C G120C | -6.82
G42C G120U | -1.69
U14G G44C C86U C89U G120A | -2.75
C12U A37U G60C | -1.06
A5U G45U A46C | -1.71
C34G C53U | -5.89
U59G C79A A103G | -5.54
G61U C98A | -3.78
C56U A105U | -2.17
G58C U96A C97A C104A G120U G128C | -7.29
C101A G107U U112G | -6.92
C73U A83C | -2.2
G44U G71C | -2.58
C12U G47U C73A C86G G122A | -0.298
C28U G39U A111C | -6.59
